Data taken from patent publication US20100087371.

Key:
[1] = molecular target: hGHQ141N, P01241
[2] = molecular target: hGHQ40N, P01241
Sequence of hGHQ40N, P01241 (P01241 27-217 Q66N): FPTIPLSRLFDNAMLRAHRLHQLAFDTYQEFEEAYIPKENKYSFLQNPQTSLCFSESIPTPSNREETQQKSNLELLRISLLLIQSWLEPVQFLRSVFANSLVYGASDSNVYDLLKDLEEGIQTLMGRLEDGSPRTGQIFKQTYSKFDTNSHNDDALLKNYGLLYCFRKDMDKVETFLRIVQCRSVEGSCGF

Sequence of hGHQ141N, P01241 (P01241 27-217 Q167N): as the sequence (P01241 27-217 Q66N) above, with N40Q, Q141N counted along it

B1: AlaPro-mTGase from S. mobaraensis (protein)
chain: APDSDDRVTPPAEPLDRMPDPYRPSYGRAETVVNNYIRKWQQVYSHRDGRKQQMTEEQREWLSYGCVGVTWVNSGQYPTNRLAFASFDEDRFKNELKNGRPRSGETRAEFEGRVAKESFDEEKGFQRAREVASVMNRALENAHDESAYLDNLKKELANGNDALRNEDARSPFYSALRNTPSFKERNGGNHDPSRMKAVIYSKHFWSGQDRSSSADKRKYGDPDAFRPAPGTGLVDMSRDRNIPRSPTSPGEGFVNFDYGWFGAQTEADADKTVWTHGNHYHAPNGSLGAMHVYESKFRNWSEGYSDFDRGAYVITFIPKSWNTAPDKVKQGWP
[1]
  Activity towards hGHQ141N (RFU/sec/µg), dansyl-cadaverine incorporation: 1.56 RFU/sec/µg
[2]
  Activity towards hGHQ40N (RFU/sec/µg), dansyl-cadaverine incorporation: 5.05 RFU/sec/µg

B2: GlyPro-mTGase from S. mobaraensis (protein)
chain: GPDSDDRVTPPAEPLDRMPDPYRPSYGRAETVVNNYIRKWQQVYSHRDGRKQQMTEEQREWLSYGCVGVTWVNSGQYPTNRLAFASFDEDRFKNELKNGRPRSGETRAEFEGRVAKESFDEEKGFQRAREVASVMNRALENAHDESAYLDNLKKELANGNDALRNEDARSPFYSALRNTPSFKERNGGNHDPSRMKAVIYSKHFWSGQDRSSSADKRKYGDPDAFRPAPGTGLVDMSRDRNIPRSPTSPGEGFVNFDYGWFGAQTEADADKTVWTHGNHYHAPNGSLGAMHVYESKFRNWSEGYSDFDRGAYVITFIPKSWNTAPDKVKQGWP
[1]
  Activity towards hGHQ141N (RFU/sec/µg), dansyl-cadaverine incorporation: 1.13 RFU/sec/µg
[2]
  Activity towards hGHQ40N (RFU/sec/µg), dansyl-cadaverine incorporation: 4.28 RFU/sec/µg

B3: Met-mTGase from S. ladakanum (protein)
chain: MDSDERVTPPAEPLDRMPDPYRPSYGRAETIVNNYIRKWQQVYSHRDGRKQQMTEEQREWLSYGCVGVTWVNSGQYPTNRLAFAFFDEDKYKNELKNGRPRSGETRAEFEGRVAKDSFDEAKGFQRARDVASVMNKALENAHDEGAYLDNLKKELANGNDALRNEDARSPFYSALRNTPSFKDRNGGNHDPSKMKAVIYSKHFWSGQDRSGSSDKRKYGDPEAFRPDRGTGLVDMSRDRNIPRSPTSPGESFVNFDYGWFGAQTEADADKTVWTHGNHYHAPNGSLGAMHVYESKFRNWSDGYSDFDRGAYVVTFVPKSWNTAPDKVKQGWP
[1]
  Activity towards hGHQ141N (RFU/sec/µg), dansyl-cadaverine incorporation: 0.8 RFU/sec/µg
[2]
  Activity towards hGHQ40N (RFU/sec/µg), dansyl-cadaverine incorporation: 4.74 RFU/sec/µg

B4: AlaPro-mTGase from S. ladakanum (protein)
chain: APDSDERVTPPAEPLDRMPDPYRPSYGRAETIVNNYIRKWQQVYSHRDGRKQQMTEEQREWLSYGCVGVTWVNSGQYPTNRLAFAFFDEDKYKNELKNGRPRSGETRAEFEGRVAKDSFDEAKGFQRARDVASVMNKALENAHDEGAYLDNLKKELANGNDALRNEDARSPFYSALRNTPSFKDRNGGNHDPSKMKAVIYSKHFWSGQDRSGSSDKRKYGDPEAFRPDRGTGLVDMSRDRNIPRSPTSPGESFVNFDYGWFGAQTEADADKTVWTHGNHYHAPNGSLGAMHVYESKFRNWSDGYSDFDRGAYVVTFVPKSWNTAPDKVKQGWP
[1]
  Activity towards hGHQ141N (RFU/sec/µg), dansyl-cadaverine incorporation: 1.02 RFU/sec/µg
[2]
  Activity towards hGHQ40N (RFU/sec/µg), dansyl-cadaverine incorporation: 6.91 RFU/sec/µg

B5: GlyPro-mTGase from S. ladakanum (protein)
chain: GPDSDERVTPPAEPLDRMPDPYRPSYGRAETIVNNYIRKWQQVYSHRDGRKQQMTEEQREWLSYGCVGVTWVNSGQYPTNRLAFAFFDEDKYKNELKNGRPRSGETRAEFEGRVAKDSFDEAKGFQRARDVASVMNKALENAHDEGAYLDNLKKELANGNDALRNEDARSPFYSALRNTPSFKDRNGGNHDPSKMKAVIYSKHFWSGQDRSGSSDKRKYGDPEAFRPDRGTGLVDMSRDRNIPRSPTSPGESFVNFDYGWFGAQTEADADKTVWTHGNHYHAPNGSLGAMHVYESKFRNWSDGYSDFDRGAYVVTFVPKSWNTAPDKVKQGWP
[1]
  Activity towards hGHQ141N (RFU/sec/µg), dansyl-cadaverine incorporation: 0.48 RFU/sec/µg
[2]
  Activity towards hGHQ40N (RFU/sec/µg), dansyl-cadaverine incorporation: 4.25 RFU/sec/µg

B6: mTGase from S. mobaraensis (protein)
chain: DSDDRVTPPAEPLDRMPDPYRPSYGRAETVVNNYIRKWQQVYSHRDGRKQQMTEEQREWLSYGCVGVTWVNSGQYPTNRLAFASFDEDRFKNELKNGRPRSGETRAEFEGRVAKESFDEEKGFQRAREVASVMNRALENAHDESAYLDNLKKELANGNDALRNEDARSPFYSALRNTPSFKERNGGNHDPSRMKAVIYSKHFWSGQDRSSSADKRKYGDPDAFRPAPGTGLVDMSRDRNIPRSPTSPGEGFVNFDYGWFGAQTEADADKTVWTHGNHYHAPNGSLGAMHVYESKFRNWSEGYSDFDRGAYVITFIPKSWNTAPDKVKQGWP
[1]
  Activity towards hGHQ141N (RFU/sec/µg), dansyl-cadaverine incorporation: 0.98 RFU/sec/µg
[2]
  Activity towards hGHQ40N (RFU/sec/µg), dansyl-cadaverine incorporation: 3.35 RFU/sec/µg

B7: Met-mTGase from S. mobaraensis (protein)
chain: MDSDDRVTPPAEPLDRMPDPYRPSYGRAETVVNNYIRKWQQVYSHRDGRKQQMTEEQREWLSYGCVGVTWVNSGQYPTNRLAFASFDEDRFKNELKNGRPRSGETRAEFEGRVAKESFDEEKGFQRAREVASVMNRALENAHDESAYLDNLKKELANGNDALRNEDARSPFYSALRNTPSFKERNGGNHDPSRMKAVIYSKHFWSGQDRSSSADKRKYGDPDAFRPAPGTGLVDMSRDRNIPRSPTSPGEGFVNFDYGWFGAQTEADADKTVWTHGNHYHAPNGSLGAMHVYESKFRNWSEGYSDFDRGAYVITFIPKSWNTAPDKVKQGWP
[1]
  Activity towards hGHQ141N (RFU/sec/µg), dansyl-cadaverine incorporation: 1.24 RFU/sec/µg
[2]
  Activity towards hGHQ40N (RFU/sec/µg), dansyl-cadaverine incorporation: 5.44 RFU/sec/µg

B8: Mature mTGase from S. ladakanum (protein)
chain: DSDERVTPPAEPLDRMPDPYRPSYGRAETIVNNYIRKWQQVYSHRDGRKQQMTEEQREWLSYGCVGVTWVNSGQYPTNRLAFAFFDEDKYKNELKNGRPRSGETRAEFEGRVAKDSFDEAKGFQRARDVASVMNKALENAHDEGAYLDNLKKELANGNDALRNEDARSPFYSALRNTPSFKDRNGGNHDPSKMKAVIYSKHFWSGQDRSGSSDKRKYGDPEAFRPDRGTGLVDMSRDRNIPRSPTSPGESFVNFDYGWFGAQTEADADKTVWTHGNHYHAPNGSLGAMHVYESKFRNWSDGYSDFDRGAYVVTFVPKSWNTAPDKVKQGWP
[1]
  Activity towards hGHQ141N (RFU/sec/µg), dansyl-cadaverine incorporation: 0.63 RFU/sec/µg
[2]
  Activity towards hGHQ40N (RFU/sec/µg), dansyl-cadaverine incorporation: 3.55 RFU/sec/µg
